Data set [1] has as its system subcutaneous SKRC52 tumors. Kind of data set: Analysis of tumor penetration by fluorescence microscopy. The following applies: 50 nmol intravenous; for tumor staining / penetration by fluorescence microscopy: Alexa546 probes. The format is in vivo, mouse. On the procedure: After warming to −20° C., samples were cut into sections of 10 μm width and directly imaged on an Axioskop 2 fluorescence microscope (Zeiss).

Data set [2] in a line: Stability in mouse plasma/serum at 37 C. The format is in vitro ADME. The method, then:
(§1) Targeted carbonate or carbamate 7a or 8a (30 μg) was dissolved in PBS pH 7.4 (1.5 mL) and incubated at 37° C. under gentle agitation. Aliquots (100 μL) were removed at different time points and diluted 1:1 with an internal standard of etodolac (TCI Chemicals) in MeOH (20 μg mL^−1). Small molecules were separated from salts using an Oasis WAX online sample preparation column (Waters) on an Alliance HT separation module (50 μL injections, 0.3 mL min^−1 0.1% aq. HCOOH for 3 min followed by 0.3 mL min^−1 MeCN for 7 min, Waters) and analyzed by mass spectrometry/mass spectrometry (MS/MS) on a Quattro API spectrometer (Waters) monitoring appropriate multiple reaction monitoring (MRM) transitions for 8a, 8b and etodolac as standard. Measurements were performed in triplicate, peaks integrated and the fraction of intact test compounds calculated as fraction of signal at time t divided by signal at time zero. Since signals due to etodolac were constant over time a further correction using the internal standard as reference was omitted. For stability measures in mouse serum, compounds were dissolved in freshly thawed mouse plasma (Invitrogen), aliquots taken at different time points and diluted with an equal volume of MeCN. After vigorous vortexting for 1 min, protein precipitate was spun down and the supernatant analyzed as above.
Targeted DM1 conjugate 9a (230 μg, 140 nmol) was dissolved in PBS pH 7.4 (1 mL) and incubated at 37° C. under gentle agitation. Aliquots (100 μL) were removed at different time points and diluted 1:1 with an internal standard solution of etodolac (TCI Chemicals) in MeCN (20 μg mL^−1). Water (600 μL) was added and aliquots of this mixture (50 μL) analyzed over a Syngergi RP Polar column (150×4.6 mm, 4 μm, Phenomenex) on an Alliance HT separation module (1 mL min^−1 5% MeCN in 0.1% aqueous TFA to 100% MeCN over 20 min, Waters). Analytes were detected using a Water 2996 photo array UV/VIS detector (Waters). Measurements were performed in triplicate, peaks integrated and the fraction of intact test compounds calculated as fraction of signal at time t divided by signal at time zero. Since signals due to etodolac were constant over time a further correction using the internal standard as reference was omitted. For stability measures in mouse serum, compounds were dissolved in freshly thawed mouse plasma (Invitrogen), aliquots taken at different time points and diluted with an equal volume of MeCN. After vigorous vortexting for 1 min, protein precipitate was spun down and the supernatant analyzed as above.

Data set [3] addresses T1, recombinant carbonic anhydrase IX (Homo sapiens, UniProt Q16790).
T1 construct: Recombinant CAIX was expressed as described previously; made in house
Kind of data set: biochemical. In kind it is binding. The method, then: The FP was measured on a Spectra Max Paradigm multimode plate reader (Molecular Devices). Experiments were performed in triplicate and data analyzed as described by Wang and co-workers.^[4]

Data set [4] in a line: Estimation of the recommended therapy dose (tolerability). In kind it is in vivo, mouse. Particulars: for tolerated dose: nude mice, one mouse per regimen. On the procedure: Estimation of the recommended therapy dose of a) 7a and b) 8a in nude mice was performed by studying different dosages using a schedule of five injections on five consecutive days compared to vehicle (5% DMSO in PBS pH 7.4). The dosage regimens were 0.4 nmol/day, 1.3 nmol/day, 4.0 nmol/day and 13.3 nmol/day. One mouse was used for each regimen.
Estimation of the recommended therapy dose and schedule of DM1 conjugate 9a was studied in SKRC52 tumor bearing nude mice. One mouse was used for testing each dosing scheme. Injections were given daily starting on day 0 in 5% DMSO in PBS pH 7.4 (150 μL). […] Since the animals in this study weighed on average 18% less than those used in the therapy study, a dose of 70 nmol per injection was used for the therapy experiment.

The test system of the next data set is SKRC52 xenograft tumors. The following applies: for tumor growth effect: 5 doses of 4 nmol on 5 consecutive days, 7a vs vehicle p<0.0001, vs 7b plus AAZ p<0.05. The method, then: SKRC52 xenograft tumors were implanted into balb/c nu/nu mice (Charles River) as described above. […] 5 doses of 4 nmol 7a,b, 8a,b or 7 doses of 70 nmol 9a,b each in PBS pH 7.4 (150 μL) containing 5% DMSO were given on 5 or 7 consecutive days and one group was treated with vehicle (5% DMSO in PBS pH 7.4). In the case of 7-9b an equimolar amount of AAZ was added to the injection solution to control for a possible antitumor activity of CAIX inhibitors. Sorafenib and sunitnib were administered at a standard dose of 30 mg/kg as described previously.^[5] Animals were weighed and tumor sizes measured daily and the tumor volume calculated according to the formula (long side)×(short side)^2×0.5. […] Prism 6 (GraphPad Software) was used for data analysis (regular two-way ANOVA with the Bonferroni test).

The nature of data set [5]: Hydrolytic stability in PBS pH 7.4 at 37 C (MS/MS or HPLC). The format is physicochemical. Also on record: half-life: dose or concentration left out as unconfirmed. Particulars: PBS pH 7.4, 37° C.; for half-life: read-out: t1/2 in PBS (converted). On the procedure:
as §1
Targeted DM1 conjugate 9a (230 μg, 140 nmol) was dissolved in PBS pH 7.4 (1 mL) and incubated at 37° C. under gentle agitation. […] Water (600 μL) was added and aliquots of this mixture (50 μL) analyzed over a Syngergi RP Polar column (150×4.6 mm, 4 μm, Phenomenex) on an Alliance HT separation module (1 mL min^−1 5% MeCN in 0.1% aqueous TFA to 100% MeCN over 20 min, Waters). Analytes were detected using a Water 2996 photo array UV/VIS detector (Waters). Measurements were performed in triplicate, peaks integrated and the fraction of intact test compounds calculated as fraction of signal at time t divided by signal at time zero. […] After vigorous vortexting for 1 min, protein precipitate was spun down and the supernatant analyzed as above.

For data set [6], the system named is CAIX expressing SKRC52 cells. Nature of the data set: In vitro cytotoxicity assay (MTS). In kind it is cell-based, human. The following applies: Condition (b): 1 h exposure, wash, then 72 h; concentrations up to 300 nM. The method, then: SKRC52 or A549 cells were seeded in 96-well plates in their appropriate culture medium (100 μL) at a density of 5000 cells per well and allowed to grow for 24 h. The medium was replaced with medium containing different concentrations of test substance (100 μL, 300 nM-15 pM in 1:3 dilution steps) and plates were either:
(a) incubated for 72 hours in the presence of the toxic substance, or
(b) incubated for 1 h under standard culture conditions, followed by removal of the medium containing the toxic substance, gently washing the cells fresh medium once and adding new medium (100 μL) and incubating for 72 h under culture conditions.
MTS cell viability dye (20 μL, Promega) was added, the plates were incubated for 1 h under culture conditions and the absorbance at 490 nm measured on a Spectra Max Paradigm multimode plate reader (Molecular Devices). Experiments were performed in triplicate and average cell viability calculated as measured background corrected absorbance divided by the absorbance of untreated control wells. EC50 values were determined by fitting data to the four-parameter logistic equation.

Data set [7] relates to CAIX expressing SKRC52 cells. Kind of data set: Ligand binding analysis by flow cytometry, SKRC52. In kind it is cell-based, human. Particulars: 30 nM dye conjugate, 1 h at 0° C., washed. On the procedure:
Cells were detached from culture plates using a 50 mM EDTA solution in phosphate buffered saline (PBS) pH 7.4, counted and suspended to a final concentration of 1.5×10^6 cells mL^−1 in a 1% v/v solution of FCS in PBS pH 7.4. Aliquots of 3×10^5 cells (200 μL) were spun down and resuspended in solutions of IRDye750 (Licor) labeled ligands (30 nM) in a 1% v/v solution of FCS in PBS pH 7.4 (200 μL) and incubated on ice for 1 h. Cells were washed once with 200 μL 1% v/v solution of FCS in PBS pH 7.4 (200 μL), spun down, resuspended in 1% v/v solution of FCS in PBS pH 7.4 (300 μL) and analyzed on a FACS Canto flow cytometer (BD Bioscience). FlowJo Version 8.7 (Treestar) was used for data analysis and visualization. Results were as follows: • (1) Flow cytometry analysis of binding of ligand-IRDye750 conjugates 1c-6c (FIG. 1) to CAIX expressing SKRC52 cells.
Flow cytometry was performed as described above with monovalent and bivalent near infrared dye conjugates B3 and B4 and negative control conjugates lacking the ligand on CAIX-positive SKRC52 cells and CAIX-negative HEK cells^5.

In data set [8] the test system is subcutaneous SKRC52 tumors.
Protocol: SKRC52 cells were grown to 80% confluence and detached with Trypsin-EDTA 0.05% (Invitrogen). Cells were washed with PBS pH 7.4 once, counted and resuspended in PBS to a final concentration of 6.7×10^7 cells mL^−1. Athymic balb/c nu/nu mice, 8-10 weeks of age (Charles River) were anesthetized with isofluorane and aliquots of 1×10^7 cells (150 μL of suspension) injected subcutaneously into their lower back.
Food and water was given ad libitum during that period.
Mice were subsequently sacrificed by cervical dislocation.
[9] abbreviates: 7×70 nmol on 7 consecutive days.
[10] abbreviates: five injections on five consecutive days.

By Kd is commonly meant a measure of binding affinity in units of concentration. The term EC50 denotes the concentration that produces a half-maximal response.

For the molecule “N1-(2-(2-(2-aminoethoxy)ethoxy)ethyl)-N4-(5-sulfamoyl-1,3,4-thiadiazol-2-yl)succinamide Alexa546 conjugate [Compound 1b]”, in data set [1], the “fluorescence in organs by microscopy” value was “strong fluorescence due to 1b inside the tumor and the intestine”; the “tumor staining / penetration by fluorescence microscopy” value was “staining of the tumor with 1b is initially highest in well-perfused areas”.

Turning to `COc1cc2cc(c1Cl)N(C)C(=O)C[C@H](OC(=O)[C@H](C)N(C)C(=O)CCSSC[C@H](NC(=O)[C@H](CC(=O)O)NC(=O)[C@H](CCCNC(=N)N)NC(=O)[C@H](CC(=O)O)NC(=O)CCCCn1cc(CCCC(=O)Nc3nnc(S(N)(=O)=O)s3)nn1)C(=O)O)[C@@]1(C)O[C@H]1[C@H](C)[C@@H]1C[C@@](O)(NC(=O)O1)[C@H](OC)/C=C/C=C(\C)C2` [Compound 9a, Targeted DM1 Conjugate], the half-life in [2] (mouse serum, HPLC, read-out: t1/2 in mouse serum (converted)) was 20 h. For the same molecule, in [3], the Kd is 26.5 ± 2.5 nM and the “binding affinity for recombinant CAIX in vitro (in words)” value (“binding affinity for recombinant CAIX” for short) is listed as “retain binding affinity for recombinant CAIX in vitro”. Moreover, the “tolerability of six doses of 60 nmol” value in [4] (daily injections, SKRC52 tumor bearing nude mice) is on record as “tolerated with only minimal weight loss”. Further, in the data set with SKRC52 xenograft tumors (setting [9]), the anti-tumor effect entry was “potent anti-tumor effect”, the “time after start of treatment at which tumors started regrowing” value is 20 days and the “toxicity (body weight)” value is listed as “no detectable body weight loss”. Further, the “decomposition in PBS (in words)” value in [5] (HPLC) is “No decomposition was observed”.

Take “tert-butyl (2-(2-(2-aminoethoxy)ethoxy)ethyl)carbamate Alexa546 conjugate [Compound 6b]”: the “tumor staining / penetration by fluorescence microscopy” value in [1] is reported as “cannot be detected inside the tumor”.

On to `COc1cc2[nH]cc(C(=O)N3C[C@@H](CCl)c4c3cc(OC(=O)OCCSSC[C@H](NC(=O)[C@H](CC(=O)O)NC(=O)[C@H](CCCNC(=N)N)NC(=O)[C@H](CC(=O)O)NC(=O)CCCCn3cc(CCCC(=O)Nc5nnc(S(N)(=O)=O)s5)nn3)C(=O)O)c3ccccc43)c2cc1OCCN(C)C` [Compound 7a, AAZ Targeted CBI Carbonate], for which the half-life in [2] (mouse plasma, MS/MS, errors <1 min, read-out: Half lives in mouse plasma) was determined as 0.717 h. The half-life in data set [2] (mouse serum, read-out: t1/2 in mouse serum in vitro) worked out at 0.717 h. In data set [3], the dissociation constant (Kd) came out at 7.3 ± 0.5 nM and the “binding affinity for recombinant CAIX” value is reported as “retain binding affinity for recombinant CAIX in vitro”. Also, in [4] (setting [10]), the “tolerability at 13.3 nmol/day” value was “poorly tolerated” and the tolerated dose entry is recorded as “up to 4.0 nmol/day”. Besides, the tumor growth effect entry in the data set with SKRC52 xenograft tumors is listed as “statistically significant tumor growth retardation”. Moreover, in [6], the EC50 came to 0.7 ± 0.1 nM. Moreover, the half-life in [5] was 15 h.

As for `CC(C)(C)OC(=O)NCCOCCOCCNC(=O)CCCCc1ccc(C2=C(/C=C/C3=[N+](CCCCS(=O)(=O)O)c4ccc(S(=O)(=O)O)cc4C3(C)C)CCC/C2=C\C=C2\N(CCCCS(=O)(=O)O)c3ccc(S(=O)(=O)[O-])cc3C2(C)C)cc1` [Compound 6c, reference compound], the “binding to SKRC52 cells (fluorescence shift)” value in [7] is “only shows little residual binding”. Moreover, in data set [8] (3 nmol intravenous, 1-12 h), the “tumor targeting by near infrared imaging” value is reported as “does not reach the tumor”. Further, the “accumulation in extracted tumor and organs (imaging)” value in [8] (mouse, in vivo) is reported as “very little tumor or organ accumulation”.

With `COc1cc2[nH]cc(C(=O)N3C[C@@H](CCl)c4c3cc(OC(=O)N(C)CCSSC[C@H](NC(=O)[C@H](CC(=O)O)NC(=O)[C@H](CCCNC(=N)N)NC(=O)[C@H](CC(=O)O)NC(=O)CCCCn3cc(CCCC(=O)Nc5nnc(S(N)(=O)=O)s5)nn3)C(=O)O)c3ccccc43)c2cc1OCCN(C)C` [Compound 8a, AAZ Targeted CBI Carbamate], the half-life in [2] (plasma, MS/MS, errors <1 min, read-out: Half lives in mouse plasma) was 1.02 h; in data set [2] (serum, read-out: t1/2 in mouse serum in vitro), 1.02 h; in data set [5] (buffer) it was above 24 h. Besides, the Kd in data set [3] came to 40.3 ± 2.6 nM. Further, the “binding affinity for recombinant CAIX” value in data set [3] was “retain binding affinity for recombinant CAIX in vitro”. Moreover, the tolerated dose in [4] (setting [10]) was at most 13.3 nmol/day. The tumor growth effect result in the data set with SKRC52 xenograft tumors is “did not lead to any retardation in tumor growth”.

The values are drawn from patent US9884122B2, “Small molecule drug conjugates” (Philochem AG, priority 2014, dated 2018).
